Results as given in patent publication US20240352438A1, “MEANS AND METHODS FOR DETOXIFYING OCHRATOXIN A” (DSM Austria GmbH, priority 2021, published 2024).
Changes are numbered by the printed parent chain.

B1: 167 (protein)
chain: MTTRTRILTAFLSLLAANACAADAAPAAPHTVVLRAARMFDGASGKLVDHPQLTIVGNKIVRIAQGDKAEVPAGAEVVDLGDATLLPGFIDAHVHLSGQSSDNWYGDFFDNMMRFPAEQALYGAYYARITLEAGFTSVRDVGSTDWVALGLRNAIDAGKVPGPRMLVSNYPVGSTGGHADQDPVPPHKLPLAGPLQGVCNGPEECRAAVRYQIKYGANVIKFMPSGGVLSLSDPVDAPELSQDEMNAVIGESHAWGRKVAAHAHGDKAAKMAVAAGVDSIEHGSFIEDDTLRAMKAKNVYLVPTISAIAHVEEKIGTFPPVIAEKGRAAAAHLRQTFRHAVQIGVPIALGTDAAVGAHGSNAREFRYMVENGLTPAQALLAGTANAARLLGTFDRVGTLEAGKLADVVAVPGNPIADITVTERPLFVMKDGVVVRRDAVR
modifications: exemplary polypeptide
B2: 193 (protein)
chain: B1 chain with P171A, V184I, A354G, G356A
modifications: exemplary polypeptide
B3: 189 (protein)
chain: B1 chain with P171A, V184I, A354L
modifications: exemplary polypeptide
B4: 174 (protein)
chain: B1 chain with P171A, I308V, F318Y, A354G
modifications: exemplary polypeptide
B5: 173 (protein)
chain: B1 chain with P171A, I308A, F318Y, A354G
modifications: exemplary polypeptide
B6: 181 (protein)
chain: B1 chain with Y170F, P171A, V184I, A354G
modifications: exemplary polypeptide
B7: 182 (protein)
chain: B1 chain with Y170R, P171A, V184I, A354G
modifications: exemplary polypeptide
B8: 175 (protein)
chain: B1 chain with P171A, I308A
modifications: exemplary polypeptide
B9: 190 (protein)
chain: B1 chain with P171A, V184I, A354S
modifications: exemplary polypeptide
B10: 177 (protein)
chain: B1 chain with P171A, F318Y
modifications: exemplary polypeptide
B11: 196 (protein)
chain: B1 chain with P171A, V184I, A354G, G356V
modifications: exemplary polypeptide
B12: 195 (protein)
chain: B1 chain with P171A, V184I, A354G, G356P
modifications: exemplary polypeptide
B13: 183 (protein)
chain: B1 chain with P171A, V184I, A330L, A354G
modifications: exemplary polypeptide
B14: 194 (protein)
chain: B1 chain with P171A, V184I, A354G, G356F
modifications: exemplary polypeptide
B15: 188 (protein)
chain: B1 chain with P171A, V184I, L333V, A354G
modifications: exemplary polypeptide
B16: 187 (protein)
chain: B1 chain with P171A, V184I, L333M, A354G
modifications: exemplary polypeptide
B17: 180 (protein)
chain: B1 chain with Y170E, P171A, V184I, A354G
modifications: exemplary polypeptide
B18: 168 (protein)
chain: B1 chain with V184I, I308A, F318Y, A354G
modifications: exemplary polypeptide
B19: 169 (protein)
chain: B1 chain with V184I, I308V, F318Y, A354G
modifications: exemplary polypeptide
B20: 186 (protein)
chain: B1 chain with P171A, V184I, L333I, A354G
modifications: exemplary polypeptide
B21: 179 (protein)
chain: B1 chain with P171A, V184I, I308V, F318Y
modifications: exemplary polypeptide
B22: 184 (protein)
chain: B1 chain with P171A, V184I, A330M, A354G
modifications: exemplary polypeptide
B23: 192 (protein)
chain: B1 chain with P171A, V184I, A354V
modifications: exemplary polypeptide

assay: OTA detoxification activity assay (specific activity, fluorescence reduction ex/em 390/450 nm); assay type: biochemical; conditions: pH 6.0; SEQ ID NO: 1 = 100%
Procedure, shortened: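 Recombinant enzyme preparation with 200 ng/mL OTA in 100 mM sodium phosphate, at pH 6.0 and pH 7.5, 37° C. Degradation followed as the fall in fluorescence at ex/em 390/450 nm. Specific activity taken from the initial linear slope; one unit degrades 1 μmol OTA per min at a starting OTA of […].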

| Molecule | Specific OTA detoxification activities in % compared to the enzyme of SEQ ID NO: 1, pH 6.0 [%] |
| --- | --- |
| B1 | 54 |
| B2 | 81 |
| B3 | 82 |
| B4 | 45 |
| B5 | 27 |
| B6 | 138 |
| B7 | 98 |
| B8 | 121 |
| B9 | 122 |
| B10 | 94 |
| B11 | 48 |
| B12 | 148 |
| B13 | 58 |
| B14 | 78 |
| B15 | 84 |
| B16 | 51 |
| B17 | 91 |
| B18 | 41 |
| B19 | 50 |
| B20 | 142 |
| B21 | 49 |
| B22 | 103 |
| B23 | 69 |

same assay, conditions: pH 7.5; SEQ ID NO: 1 = 100%

| Molecule | Specific OTA detoxification activities in % compared to the enzyme of SEQ ID NO: 1, pH 7.5 [%] |
| --- | --- |
| B1 | 73 |
| B2 | 85 |
| B3 | 22 |
| B4 | 59 |
| B5 | 53 |
| B6 | 112 |
| B7 | 91 |
| B8 | 108 |
| B9 | 85 |
| B10 | 90 |
| B11 | 58 |
| B12 | 100 |
| B13 | 55 |
| B14 | 52 |
| B15 | 52 |
| B16 | 58 |
| B17 | 83 |
| B18 | 62 |
| B19 | 45 |
| B20 | 115 |
| B21 | 66 |
| B22 | 76 |
| B23 | 30 |

assay: Enzymatic activity comparison: activity remaining after 65° C. for 10 min at pH 6.0, relative to SEQ ID NO: 1; assay type: physicochemical; conditions: not given
Procedure: To compare the temperature behavior and thermostability of selected enzymes to one another, enzyme was incubated at 65° C. for 10 min at pH 6.0. The enzymatic activity remaining after incubation was compared to the remaining activity of the enzyme of SEQ ID NO: 1 after incubation, the latter being set to 100%, see Table 16.

| Molecule | Enzymatic activity remaining after incubation, compared to SEQ ID NO: 1 (set to 100%) [%] |
| --- | --- |
| B1 | 26 |
| B2 | 42 |
| B3 | 19 |
| B4 | 54 |
| B5 | 53 |
| B6 | 47 |
| B7 | 38 |
| B8 | 13 |
| B9 | 15 |
| B10 | 20 |
| B11 | 57 |
| B12 | 38 |
| B13 | 75 |
| B14 | 45 |
| B15 | 45 |
| B16 | 36 |
| B17 | 28 |
| B18 | 48 |
| B19 | 30 |
| B20 | 42 |
| B21 | 17 |
| B22 | 46 |
| B23 | 41 |
